{
  "source": "patent US7223834",
  "about": "(Bristol-Myers Squibb, dated 2007)",
  "binders": {"B1": {"name": "30-mer inhibitor peptide (30-IP), QTVTWPDMELPLPRNITEGQARGSVILTVK-Biotin (peptide)", "peptide": "QTVTWPDMELPLPRNITEGQARGSVILTVK(Biotin)", "modifications": "not fully specified (N-terminus, C-terminus); printed as QTVTWPDMELPLPRNITEGQARGSVILTVK-Biotin"}},
  "target": "aggrecan degrading metallo protease (ADMP)",
  "assay": "cell-based or functional assay",
  "note": "Ends that are not written are not given here. * marks the point of attachment. Biotin = O=C1N[C@H]2[C@H](CS[C@H]2CCCCC(=O)*)N1",
  "data": [
    {"binder": "B1", "values": [
      {"measurement": "IC50 for the inhibition of ADMP activity (microplate assay, cleavage of plate-bound 41-PS detected with BC-3 antibody)", "result": 11, "unit": "µM"}
    ]}
  ]
}
